The values below are quoted from earlier work in publication PMC5347372.

The target of this data set is alpha-factor (Saccharomyces cerevisiae) (UniProt P01149).

With Ste2 (from UniProt D6VTK4), the Kd is 7 nM.

Usually Kd stands for the free concentration of one partner at which half of the binding sites on the other are occupied at equilibrium, for simple one-to-one binding.
